Assay in all cases: ITC; ITC: 20 mM Tris pH 7.25, 100 mM KCl, 5 mM MgCl2, 1 mM DTT, 298 K; protein titrated into RNA
Common to all, as to settings: protein: recombinant; tags: N-terminal His6 (TEV-cleavable); stem-loop with internal bulge
On the technique in general: Isothermal titration calorimetry measures the heat released or taken up as one component is titrated into another.

In one data set the target is T1, RRM1 chimera (Homo sapiens, UniProt Q9BRS8 70-179+P05455:111-202, internal_change).
T1 sequence: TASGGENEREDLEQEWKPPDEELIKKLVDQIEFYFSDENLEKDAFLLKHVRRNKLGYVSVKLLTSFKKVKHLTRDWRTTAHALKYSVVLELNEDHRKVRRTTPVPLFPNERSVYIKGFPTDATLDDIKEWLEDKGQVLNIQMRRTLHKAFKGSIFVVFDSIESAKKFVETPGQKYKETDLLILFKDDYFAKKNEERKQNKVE

Another data set addresses T2, HsLARP6(70-300) F114A (Homo sapiens, UniProt Q9BRS8 70-300, F114A).
T2 sequence: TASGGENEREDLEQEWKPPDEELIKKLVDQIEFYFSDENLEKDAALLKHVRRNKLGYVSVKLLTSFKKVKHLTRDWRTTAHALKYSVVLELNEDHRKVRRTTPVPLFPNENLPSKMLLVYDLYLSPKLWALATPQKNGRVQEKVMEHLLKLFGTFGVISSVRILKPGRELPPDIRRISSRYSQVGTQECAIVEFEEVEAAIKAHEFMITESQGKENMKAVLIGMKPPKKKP

The target of another data set is T3, HsLARP6(70-300) F135A (Homo sapiens, UniProt Q9BRS8 70-300, F135A).
T3 sequence: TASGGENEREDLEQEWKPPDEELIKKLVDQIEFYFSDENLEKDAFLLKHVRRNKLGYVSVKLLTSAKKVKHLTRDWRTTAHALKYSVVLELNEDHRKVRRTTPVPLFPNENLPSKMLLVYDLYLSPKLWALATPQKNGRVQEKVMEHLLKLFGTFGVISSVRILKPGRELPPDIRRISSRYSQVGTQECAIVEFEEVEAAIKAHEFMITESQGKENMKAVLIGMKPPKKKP

The target in another data set is T4, HsLARP6(74-313) (Homo sapiens, UniProt Q9BRS8 74-313).
T4 sequence: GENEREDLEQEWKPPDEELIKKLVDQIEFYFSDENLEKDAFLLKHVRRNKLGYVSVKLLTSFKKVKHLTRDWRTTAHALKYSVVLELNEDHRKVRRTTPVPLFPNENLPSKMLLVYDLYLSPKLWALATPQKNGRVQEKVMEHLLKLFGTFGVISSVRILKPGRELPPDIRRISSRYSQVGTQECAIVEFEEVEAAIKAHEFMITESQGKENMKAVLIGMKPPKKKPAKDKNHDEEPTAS

The next data set concerns the target T5, HsLARP6(70-300) E262A (Homo sapiens, UniProt Q9BRS8 70-300, E262A).
T5 sequence: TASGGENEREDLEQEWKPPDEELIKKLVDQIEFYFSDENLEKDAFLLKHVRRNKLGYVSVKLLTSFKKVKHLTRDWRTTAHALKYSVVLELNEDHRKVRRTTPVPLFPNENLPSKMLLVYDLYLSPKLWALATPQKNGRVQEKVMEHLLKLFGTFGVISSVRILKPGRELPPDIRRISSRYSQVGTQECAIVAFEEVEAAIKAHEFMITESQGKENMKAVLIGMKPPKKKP

The next data set concerns the target T6, HsLARP6(70-300) F102A (Homo sapiens, UniProt Q9BRS8 70-300, F102A).
T6 sequence: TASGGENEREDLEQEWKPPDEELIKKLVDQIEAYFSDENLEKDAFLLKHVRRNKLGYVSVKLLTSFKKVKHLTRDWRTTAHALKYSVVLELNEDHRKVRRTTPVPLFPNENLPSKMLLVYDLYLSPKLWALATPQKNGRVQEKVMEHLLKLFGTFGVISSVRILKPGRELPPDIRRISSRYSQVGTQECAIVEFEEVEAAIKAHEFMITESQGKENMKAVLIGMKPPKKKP

The next data set deals with T7, HsLARP6(70-300) Y189A (Homo sapiens, UniProt Q9BRS8 70-300, Y189A).
T7 sequence: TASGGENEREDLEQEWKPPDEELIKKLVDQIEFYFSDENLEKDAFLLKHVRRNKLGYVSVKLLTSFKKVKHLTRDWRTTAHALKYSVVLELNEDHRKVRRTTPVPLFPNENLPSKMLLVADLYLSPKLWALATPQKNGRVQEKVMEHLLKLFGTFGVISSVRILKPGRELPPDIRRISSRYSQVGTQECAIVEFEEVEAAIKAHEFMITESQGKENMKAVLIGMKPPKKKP

In another data set the target is T8, HsLARP6(70-300) Y103A (Homo sapiens, UniProt Q9BRS8 70-300, Y103A).
T8 sequence: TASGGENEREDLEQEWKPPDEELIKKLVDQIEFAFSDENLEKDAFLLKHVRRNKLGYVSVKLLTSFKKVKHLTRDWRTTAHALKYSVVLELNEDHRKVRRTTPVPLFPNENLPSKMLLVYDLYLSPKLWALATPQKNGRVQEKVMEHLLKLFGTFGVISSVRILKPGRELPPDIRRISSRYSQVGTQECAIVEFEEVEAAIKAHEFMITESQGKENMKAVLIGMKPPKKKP

B1: 48 nt RNA (collagen alpha1(I) 5' UTR SL) (structured_RNA)
RNA: CCACAAAGAGUCUACAUGUCUAGGGUCUAGACAUGUUCAGCUUUGUGG
What is called Kd is the free concentration of one partner at which half of the binding sites on the other are occupied at equilibrium, for simple one-to-one binding. Take B1: the binding result with RRM1 chimera, with HsLARP6(70-300) F114A, with HsLARP6(70-300) F135A, in the data set with HsLARP6(70-300) F102A and in the data set with HsLARP6(70-300) Y103A was “no binding” throughout. For the same molecule, the Kd in the data set with HsLARP6(74-313) is 0.026 µM; with HsLARP6(70-300) E262A it was 0.0053 µM; with HsLARP6(70-300) Y189A, 0.059 µM.

(Values after publication PMC4288179, “Synergic interplay of the La motif, RRM1 and the interdomain linker of LARP6 in the recognition of collagen mRNA expands the RNA binding repertoire of the La module”.)
